Patent US20210253718A1, “FRIZZLED5 PROTEIN-BINDING AGENTS” (Modmab Therapeutics Corporation, priority 2016, published 2021)

T1: FZD8 CRD (Homo sapiens, UniProt Q9H461)
T1 construct: K31-D155; GPI anchor signal (C); expressed in transfected cells; host or cells: CHO cells, lentiviral pLenti-puro
T1 sequence (Q9H461 31-155): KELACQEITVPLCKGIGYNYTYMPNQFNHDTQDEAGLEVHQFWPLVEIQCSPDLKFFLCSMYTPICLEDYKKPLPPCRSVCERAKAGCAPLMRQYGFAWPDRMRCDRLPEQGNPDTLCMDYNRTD

T2: FZD10 CRD (Homo sapiens, UniProt Q9ULW2)
T2 construct: 30-156; GPI anchor signal (C); expressed in transfected cells; host or cells: CHO cells, lentiviral pLenti-puro
T2 sequence (Q9ULW2 30-156): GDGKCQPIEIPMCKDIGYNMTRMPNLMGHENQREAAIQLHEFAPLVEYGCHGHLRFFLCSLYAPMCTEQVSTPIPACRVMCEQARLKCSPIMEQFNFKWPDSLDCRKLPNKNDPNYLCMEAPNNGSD

T3: FZD9 CRD (Homo sapiens, UniProt O00144)
T3 construct: G35-A161; GPI anchor signal (C); expressed in transfected cells; host or cells: CHO cells, lentiviral pLenti-puro
T3 sequence (O00144 35-161): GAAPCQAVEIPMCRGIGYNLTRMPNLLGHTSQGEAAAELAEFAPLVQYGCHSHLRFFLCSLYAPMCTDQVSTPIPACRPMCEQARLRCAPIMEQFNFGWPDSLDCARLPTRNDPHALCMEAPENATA


How the values were obtained:
[1] = system: CHO cells not expressing Frizzled CRD; experiment: Flow cytometry of anti-FZD5 Fab binding to CHO cells not expressing Frizzled CRD (background)
From the text: (§1) The binding of anti-FZD5 Fabs to cell surface-expressed Frizzled protein was further determined for each member of the Frizzled family via flow cytometry and immunofluorescence analysis of a panel of 10 CHO cell lines, each ectopically over-expressing the extracellular cysteine-rich domain (CRD) of a different Frizzled protein family member.

[2] = target: T4, FZD1 CRD (Homo sapiens, UniProt Q9UP38); experiment: Flow cytometry of anti-FZD5 Fab binding to CHO cells overexpressing Frizzled CRD
T4 construct: D112-P238; GPI anchor signal (C); expressed in transfected cells; host or cells: CHO cells, lentiviral pLenti-puro
Protocol: Plasmids: pLCKO lentiviral vector used for knockout (TKO) library construction and expression of individual gRNAs was constructed as described previously (Hart et al., 2015). Briefly, single guide RNA (sgRNA) scaffold was amplified from px330 (Addgene 42230) and cloned into pLKO.TRC005 lentiviral vector (Broad Institute, Cambridge, Mass.) using AgeI/EcoRI restriction sites. BfuAI sites were added at the 5′ end of the sgRNA scaffold for cloning the TKO library or individual gRNA target sequences. Lenti Cas9-2A-BsdR vector used to generate Cas9 stable expression cell lines was constructed as described previously (Hart et al., 2015). Briefly, lentiCRISPR pXPR_001 (Addgene 49535) was modified through removal of the sgRNA scaffold region through NdeI/EcoRI digest and blunt ends generation using Large Klenow Fragment (NEB). 2A-puro was replaced with 2A-BsdR by PCR using the NheI/MluI sites. Each of the 10 human Frizzled cysteine rich domains (CRDs) were cloned into the lentiviral expression plasmid pLenti-puro in the following cassette: FZD_CRD-MYC-GPI.
Flow cytometry: Primary staining of cells was performed by treatment with 200 nM Frizzled profiler Fab. Alexa Fluor 488 AffiniPure F(ab′)2 was used as the secondary antibody (Jackson ImmunoResearch #109-546-097). c-Myc (9E10) IgG1 (primary antibody, Santa Cruz, lot #D0306) and Alexa Fluor 488 IgG (secondary antibody, Life technologies, lot #1458649) were used as controls. Dead cells were excluded by staining with Fixable Viability Dye eFluor 660 (eBioscience, catalogue number 65-0864). All reagents were used as per manufacturer's instructions. Flow cytometry was performed on a BD FACSCanto II flow cytometer (BD Biosciences), and data were analyzed with FlowJo software (FlowJo, LLC).
To confirm that the FZD5-WNT7B circuit is not driven simply by expression and rule out the possibility of a disconnect between RNA and protein levels for the Wnt receptors in HPAF-II cells, a panel of recombinant Fabs were generated, alternatively referred to herein as ‘Frizzled profiler’, that can detect and discriminate all but one of the ten Frizzled receptors. […] To characterize the binding specificity of these Fabs on cells, a panel of 10 CHO cell lines was generated, each expressing the CRD domain of a different myc-tagged Frizzled family member anchored at the plasma membrane through a GPI anchor (CHO-myc-FZDGPI). Despite the high sequence identity between Frizzled family members (FIG. 7A, FIG. 7B), selective Fabs were identified for FZD4, FZD5, FZD6 and FZD10 as assessed by immunofluorescence and flow cytometry (FIG. 7D and FIG. 8). […] The FZD8 CRD is most homologous to that of FZD5 (FIG. 7B). These Fabs can be used to discriminate expression of FZD1, FZD2, FZD4, FZD5, FZD6, FZD7, FZD8, FZD9 and FZD10 (FIG. 7D and FIG. 8). The ‘Frizzled profiler’ therefore consists of 10 different Fabs that can be used to discriminate expression of 9 different Frizzled family members. The Frizzled profiler was then used to confirm that HPAF-II cells express FZD1, FZD5, FZD6 and possibly FZD8 (FIG. 7E).
as §1

[3] = system: PATU8988S cells; experiment: Effect of anti-FZD5 Fabs on proliferation of pancreatic cancer cell lines (percent growth inhibition); assay type: cell-based, human; settings: Fab 2 μg/ml
[4] = target: T5, FZD7 CRD (Homo sapiens, UniProt O75084); experiment: Immunofluorescence of anti-FZD5 Fab binding to CHO cells overexpressing Frizzled CRD; parameters: key: −: no binding; +: very weak binder; ++: weak binder; +++: good binder; ++++: very good binder
T5 construct: D45-S169; GPI anchor signal (C); expressed in transfected cells; host or cells: CHO cells, lentiviral pLenti-puro
In short: (§2)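 First, ten CHO cell lines were made, each lentivirally expressing a different human Frizzled CRD tagged with myc and tethered by GPI. Next, anti-FZD5 Fabs were added to each line. Finally, binding was assessed by immunofluorescence and flow cytometry.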

[5] = target: T1, FZD8 CRD; experiment: as above; parameters: key: −: no binding; +: very weak binder; ++: weak binder; +++: good binder; ++++: very good binder
In short: as §2

[6] = target: T6, FZD2 CRD (Homo sapiens, UniProt Q14332); experiment: as above; parameters: key: −: no binding; +: very weak binder; ++: weak binder; +++: good binder; ++++: very good binder
T6 construct: D35-P161; GPI anchor signal (C); expressed in transfected cells; host or cells: CHO cells, lentiviral pLenti-puro
In short: as §2

[7] = target: T2, FZD10 CRD; experiment: as above; parameters: key: −: no binding; +: very weak binder; ++: weak binder; +++: good binder; ++++: very good binder
In short: as §2

[8] = target: T3, FZD9 CRD; experiment: as above; parameters: key: −: no binding; +: very weak binder; ++: weak binder; +++: good binder; ++++: very good binder
In short: as §2

| Molecule | Median fluorescence, Frizzled CRD overexpressed on CHO cells: None [1] | Median fluorescence, Frizzled CRD overexpressed on CHO cells: FZD1 [2] | percent growth inhibition, PATU8988s 2 μg/ml [3] [%] | Immunofluorescence binding, Frizzled CRD overexpressed on CHO cells: FZD7 [4] | Immunofluorescence binding, Frizzled CRD overexpressed on CHO cells: FZD8 [5] | Immunofluorescence binding, Frizzled CRD overexpressed on CHO cells: FZD2 [6] | Immunofluorescence binding, Frizzled CRD overexpressed on CHO cells: FZD10 [7] | Immunofluorescence binding, Frizzled CRD overexpressed on CHO cells: FZD9 [8] |
| --- | --- | --- | --- | --- | --- | --- | --- | --- |
| Fab-2928: anti-FZD5 Fab with antibody variable region Fv-2928; CDR SEQ ID NOs: 35, 36, 67, 105, 143, 175 (antibody, V domains shown) VH: EVQLVESGGGLVQPGGSLRLSCAASGFNISYSSIHWVRQAPGKGLEWVASIYPSYSSTYYADSVKGRFTISADTSKNTAYLQMNSLRAEDTAVYYCARYYAMDYWGQGTLVTVSS VL: DIQMTQSPSSLSASVGDRVTITCRASQSVSSAVAWYQQKPGKAPKLLIYSASSLYSGVPSRFSGSRSGTDFTLTISSLQPEDFATYYCQQAFYYPITFGQGTKVEIK | 3.68 | 18.43 | −2.11 | − | − | − | − | − |
| Fab-2910: anti-FZD5 Fab with antibody variable region Fv-2910; CDR SEQ ID NOs: 35, 36, 49, 88, 125, 162 (antibody, V domains shown) VH: EVQLVESGGGLVQPGGSLRLSCAASGFNISYSYMHWVRQAPGKGLEWVASIYSSSSSTSYADSVKGRFTISADTSKNTAYLQMNSLRAEDTAVYYCARGAMDYWGQGTLVTVSS VL: DIQMTQSPSSLSASVGDRVTITCRASQSVSSAVAWYQQKPGKAPKLLIYSASSLYSGVPSRFSGSRSGTDFTLTISSLQPEDFATYYCQQWYGSHLITFGQGTKVEIK | 2.92 | 6.67 | 8.48 | + | − | − | − | − |
| Fab-2918: anti-FZD5 Fab with antibody variable region Fv-2918; CDR SEQ ID NOs: 35, 36, 57, 96, 133, 169 (antibody, V domains shown) VH: EVQLVESGGGLVQPGGSLRLSCAASGFNLSYSSIHWVRQAPGKGLEWVASIYSSYSSTSYADSVKGRFTISADTSKNTAYLQMNSLRAEDTAVYYCARFGYWAIDYWGQGTLVTVSS VL: DIQMTQSPSSLSASVGDRVTITCRASQSVSSAVAWYQQKPGKAPKLLIYSASSLYSGVPSRFSGSRSGTDFTLTISSLQPEDFATYYCQQAFGASLFTFGQGTKVEIK | 3.13 | 11.97 | −0.86 | + | + | − | − | − |
| Fab-2929: anti-FZD5 Fab with antibody variable region Fv-2929; CDR SEQ ID NOs: 35, 36, 68, 106, 144, 162 (antibody, V domains shown) VH: EVQLVESGGGLVQPGGSLRLSCAASGFNISYYYIHWVRQAPGKGLEWVASIYPSSSSTSYADSVKGRFTISADTSKNTAYLQMNSLRAEDTAVYYCARGAMDYWGQGTLVTVSS VL: DIQMTQSPSSLSASVGDRVTITCRASQSVSSAVAWYQQKPGKAPKLLIYSASSLYSGVPSRFSGSRSGTDFTLTISSLQPEDFATYYCQQWYSSYGLITFGQGTKVEIK | 3.19 | 7.64 | −24.05 | + | − | − | − | − |
